Test results published in patent US20050192209A1.
Values joined by “and” are separate entries in the source; they are usually repeats but may differ in a detail not shown here. Equal values may be shown once. Values belong to the molecule of their own block, whether it stands above or below them.

Biological target: human heparanase, active 50 kDa form (human) (UniProt Q9Y251)
Experiment: cell-based or functional assay

Chain of UniProt Q9Y251 (Q9Y251 158-543 limits assumed, form in doubt): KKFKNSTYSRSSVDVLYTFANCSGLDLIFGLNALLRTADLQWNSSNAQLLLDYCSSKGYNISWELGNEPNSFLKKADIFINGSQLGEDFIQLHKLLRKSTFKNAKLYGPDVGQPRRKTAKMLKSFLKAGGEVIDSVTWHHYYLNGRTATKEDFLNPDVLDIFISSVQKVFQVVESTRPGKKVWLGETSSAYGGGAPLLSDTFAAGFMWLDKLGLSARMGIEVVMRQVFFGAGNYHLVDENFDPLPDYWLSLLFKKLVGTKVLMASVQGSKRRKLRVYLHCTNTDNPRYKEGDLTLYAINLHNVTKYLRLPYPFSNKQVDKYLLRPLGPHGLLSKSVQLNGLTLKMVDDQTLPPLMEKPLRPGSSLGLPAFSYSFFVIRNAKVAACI

inhibition of heparanase activity (35S-labeled ECM degradation): 20 ng/mL
Molecule: myelin basic protein

inhibition of heparanase activity (35S-labeled ECM degradation): 5 ng/mL and 13 ng/mL
Molecule: poly-L-arginine (peptide)

inhibition of heparanase activity (release of HS degradation fragments from 35S-labeled ECM, gel filtration): 80 nM and 200 nM
inhibition of recombinant heparanase activity by eosinophil lysates (cellular MBP), 35S-labeled ECM degradation (fold excess of MBP over heparanase): 2.5
B1: Major Basic Protein (MBP) purified from human eosinophils (protein, UniProt P13727 106-222, looked up)
chain: TCRYLLVRSLQTFSQAWFTCRRCYRGNLVSIHNFNINYRIQCSVSALNQGQVWIGGRITGSGRCRRFQWVDGSRWNFAYWAAHQPWSRGGHCVALCTRGGHWRRAHCLRRLPFICSY
